Here are results for 24 sequences from the supplement of paper PMC9170038.

The series concerns MS2 coat protein. Kind of series: apparent KD of MS2 coat protein; designed switch direction (-1 OFF switch, 1 ON switch): -1; higher = weaker reporter binding. Summed up:
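Normalised cluster fluorescence was curve-fitted, and each design's median over clusters is its apparent KD. Before this, SNAP-549-labelled MS2 coat protein was titrated from 0.7 or 1.5 nM, doubling to 3 µM, over RNA switches transcribed on Illumina chips by stalled E. coli RNA polymerase. Titrations had no input, 200 uM small-molecule ligand, or an oligonucleotide input, and steps lasted 0.8–1.5 h (lowest) to 10–20 min (highest).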

The mark [1] stands for this setting: Eterna round: R95, input ligand: microRNA oligo, concentration not stated.
The mark [2] stands for this setting: input ligand: microRNA oligo, concentration not stated.

On to “AUUUUAAUAUAGGAUAUCGAAAUUAUUAUUUAACGAGAAGGAUGAACAUGAGGAUCACCCAUGUGGUAUCAUGG [Mat - Exclusion 6 - JL Mod - D31] (puzzle: Exclusion 6)”, for which the “apparent KD of MS2 coat protein” value under setting [1] worked out at 192 nM.

“AUUUUAAUAUAGGAUAUCGAUUUUAUUAUUUAACGAGAAGGAUAAACAUGAGGAUCACCCAUGUGGUAUCAUGG [JMFs Solution 3] (puzzle: Exclusion 6)”: the “apparent KD of MS2 coat protein” value under setting [1] is 123 nM.

With “AUUUUAGAAGGAUAUUGACCGGUGGACAUGAGGAUCACCCAUGUCGUCCUGCCCAUUCCGUAAGAAGGUCUAGCGU [Eternabot (L1) Solution 96] (Eterna round: R97, puzzle: Exclusion 5)”, the “apparent KD of MS2 coat protein” value came out at 23.7 nM (input ligand: FMN 200 uM) and 24.8 nM (input ligand: none).

For the sequence “AUUUUAUAACAAGGAUAUACUAAACAUGAGGAUCACCCAUGUAAUAUUAUGAGUGAGAGAGAGAAGUAGAAGGUGUAUUAUUUU [JMF solution 1] (Eterna round: R96, puzzle: Exclusion NG 2)”, the “apparent KD of MS2 coat protein” value under setting [2] is 97.4 nM.

Consider “AUUUUGUCAGGAUAUGACUAGAUGCACGAAAGUGCAUCUACUUAGAAGGGACAUGAGGAUCACCCAUGUAUUCC [Bring Us a Shrubbery-11] (puzzle: Exclusion 4)”, for which, under setting [1], the “apparent KD of MS2 coat protein” value is 13.9 nM.

“AUUUUGUCAGGAUAUGAGUAGUAGGACGAAAGUGCUACUACUUAGAAGGGACAUGAGGAUCACCCAUGUCUUCC [Bring Us a Shrubbery-05] (puzzle: Exclusion 4)”: under setting [1], the “apparent KD of MS2 coat protein” value is 13.5 nM.

As for “AUUUUGUCAGGAUAUUGUUAGUUUAGUUGUUUGUAUUAGUUCGAGAAGGGACAUGAGGAUCACCCAUGUGAUAA [Ex4 #72] (Eterna round: R97, puzzle: Exclusion 4)”, the “apparent KD of MS2 coat protein” value (input ligand: FMN 200 uM) was found to be 71.9 nM and the “apparent KD of MS2 coat protein” value (input ligand: none) was 62.6 nM.

As for “AUUUUGUGAGGAUAUUAGUAGUAAAUGAAUAAAAUUAUUACUGAGAAGGCACAUGAGGAUCACCCAUGUUCCUA [Mat - Exclusion 4 - Eli Mod - D7] (Eterna round: R97, puzzle: Exclusion 4)”, the “apparent KD of MS2 coat protein” value is, setting by setting: (input ligand: FMN 200 uM) 175 nM; (input ligand: none) 19.2 nM.

With “AUUUUGUGAGGAUAUUAGUUGUAGAAAAUUGUUAGUAUAGCUGAGAAGGCACAUGAGGAUCACCCAUGUACAAC [JR_Ex4_Sub040] (Eterna round: R97, puzzle: Exclusion 4)”, the “apparent KD of MS2 coat protein” value by setting is: (input ligand: FMN 200 uM) 31.1 nM; (input ligand: none) 18.1 nM.

As for “AUUUUGUGAGGAUAUUAGUUUUAUAAUUUUAUUAGUUUAGCUGAGAAGGCACAUGAGGAUCACCCAUGUAAAUC [JR_Ex4_Sub045] (Eterna round: R97, puzzle: Exclusion 4)”, the “apparent KD of MS2 coat protein” value is, setting by setting: (input ligand: FMN 200 uM) 42.5 nM; (input ligand: none) 22.9 nM.

As to “CAAAACACUGGAGGAUAUUGGAAAGGAAGUGUACAAGAAGGCCAGCUCUAACAUGAGGAUCACCCAUGUCCAGGGCAUGGGCAA [PowerStrip EXNG 1.12] (Eterna round: R96, puzzle: Exclusion NG 1)”, the “apparent KD of MS2 coat protein” value (input ligand: FMN 200 uM) amounted to 31.8 nM, the “apparent KD of MS2 coat protein” value under setting [2] was found to be 19.9 nM and the “apparent KD of MS2 coat protein” value (input ligand: none) turned out to be 11.7 nM.

Turning to “CAAAACCGAGGAUAUACUUCGGAGAUAAAGGUAAGUCAAAGACUUGAGGAUCACCCAAGUAGAAGGCGGACGGA [Laeded] (Eterna round: R97, puzzle: Exclusion 2)”, the “apparent KD of MS2 coat protein” value by setting is: (input ligand: FMN 200 uM) 95.5 nM; (input ligand: none) 22.4 nM.

For “CAAAAGAGAGGAUAUACAUGAGGAUCACCCAUGUAAAGUCCGCUGGUUGUUCAGAUAUGUAGAAGGCUCGUGUC [EX3 C.5] (Eterna round: R97, puzzle: Exclusion 3)”, the “apparent KD of MS2 coat protein” value runs as follows: (input ligand: FMN 200 uM) 16.9 nM; (input ligand: none) 14.4 nM.

In the case of “CAAAAGCUAGGAUAUUGAGGUGGGCACAUGAGGAUCACCCAUGUGGACCUCGAGCCUACGCAAGAAGGAGUAAAAU [Rioren] (puzzle: Exclusion 5)”, the “apparent KD of MS2 coat protein” value came to 18 nM (Eterna round: R95, input ligand: FMN 200 uM); 13.1 nM under setting [1]; 17 nM (Eterna round: R95, input ligand: none).

“CAAAAGGAAGGAUAUACAUGUUAAUUAUCCGAAGAUGUCGUACAUGAGGAUCACCCAUGUAGAAGGUCCAAAAC [Tiesbiused] (puzzle: Exclusion 2)”: under setting [1], the “apparent KD of MS2 coat protein” value is 27.1 nM.

With “CAAAAUGUAUAAGGAUAUCUCGCCAAUAAAGGCAGAGAAGGUAUACCCACUUGAGGAUCACCCAAGUCACGUGUGCCUGGUGGA [Mutated MS2 EX1.25] (Eterna round: R96, puzzle: Exclusion NG 1)”, the “apparent KD of MS2 coat protein” value reads like this: (input ligand: FMN 200 uM) 9.27 nM; under setting [2], 9.25 nM; (input ligand: none) 11 nM.

As to “CAAAAUGUAUAAGGAUAUCUCGCCAAUAAAGGCAGAGAAGGUAUACCCACUUGAGGAUCACCCAAGUCAGGUGUGCCUGGUGGA [Mutated MS2 EX1.24] (Eterna round: R96, puzzle: Exclusion NG 1)”, the “apparent KD of MS2 coat protein” value was found to be 7.87 nM (input ligand: FMN 200 uM), 7.61 nM under setting [2] and 10.9 nM (input ligand: none).

Take “CAAAUCUGAGGAUAUCGAUAUUUGUACAUGAGGAUCACCCAUGUCCUAUUUAUAAAAUCCCGAGAAGGCAGUGUAU [JR_E5_Sub095] (puzzle: Exclusion 5)”: the “apparent KD of MS2 coat protein” value under setting [1] amounted to 16.2 nM.

For “CAACCUCACGAGGAUAUCAAUGCUAGUUGGCGUUGAGAAGGCGUAACAUGAGGAUCACCCAUGUGGUGGCGUAU [Eternabot (Original) Solution 26] (Eterna round: R97, puzzle: Exclusion 6)”, the “apparent KD of MS2 coat protein” value by setting is: (input ligand: FMN 200 uM) 1020 nM; (input ligand: none) 921 nM.

For “CAACGAAGUCGAGGAUAUGCCCACUCCGCAGCGGCAGAAGGCGACAUGAGGAUCACCCAUGUAACGGCUAACGGGAUGGGAAGG [Eternabot solution 7] (Eterna round: R96, puzzle: Exclusion NG 1)”, the “apparent KD of MS2 coat protein” value runs as follows: (input ligand: FMN 200 uM) 162 nM; under setting [2], 17.7 nM; (input ligand: none) 25.9 nM.

“CAACGAUGAGGAUAUACAUGAGGAUCACCCAUGUGGUCCAGCAGCCAUUACGGCGAAGGUAGAAGGCGUUAUUA [Eternabot (L2) Solution 54] (Eterna round: R97, puzzle: Exclusion 3)”: the “apparent KD of MS2 coat protein” value (input ligand: FMN 200 uM) worked out at 349 nM and the “apparent KD of MS2 coat protein” value (input ligand: none) was 386 nM.

Regarding “CAACGUAGUAAGGAUAUCCGGCAAAAGGCUACAGGAGAAGGUACUACAUGAGGAUCACCCAUGUGGAACUGUAA [EX6 B.7] (Eterna round: R97, puzzle: Exclusion 6)”, the “apparent KD of MS2 coat protein” value (input ligand: FMN 200 uM) came to 16.8 nM and the “apparent KD of MS2 coat protein” value (input ligand: none) came to 16.1 nM.

As for “CAAGCUUUGCGAGGAUAUGAUGGCCGAUAUGCCUCAGAAGGCGCAGAAACUUGAGGAUCACCCAAGUGAUGCAACGACGACCAU [Mutated MS2 EX1.12] (Eterna round: R96, puzzle: Exclusion NG 1)”, the “apparent KD of MS2 coat protein” value is, setting by setting: (input ligand: FMN 200 uM) 27.1 nM; under setting [2], 10.7 nM; (input ligand: none) 15.7 nM.

For the sequence “CAAUAACAAGCGAGAUCCUACAUGAGGAUCACCCAUGUGCUCGUCUUAUAAGGUACUGUGACGAUAGUCACGGUACC [Mat - Sensor, turn-off var - Eli Mod - D97] (Eterna round: R97, puzzle: Sensor, turn-off variant 1)”, the “apparent KD of MS2 coat protein” value was 18.9 nM (input ligand: FMN 200 uM) and 19.6 nM (input ligand: none).
